Several values for one entry are separate records, joined by “and”; a condition that tells them apart may be missing. Equal entries are not always repeated. Where two headings read alike, the source gives them in different places.
Legend:
[1] = biological target: T1, acrylodan-labeled E81C and E84C (Mus musculus, UniProt P21836, E115C); type: binding; conditions: acrylodan-conjugated E84C
T1 construct: made in house; host or cells: HEK293
Description: (§1) TFK^+ binding to cysteine-substituted enzymes, both free and modified with acrylodan, was also examined (Table II). For E81C and E84C, the association rate constants (kon) for TFK^+ were obtained from measurements of enzyme activity. […] For acrylodan-labeled mutants, kon was measured from the time-dependent decrease of fluorescence signal (FIG. 3).

mouse AChE = assay: TFK+ inhibition, association rate from residual enzyme activity; type: biochemical; conditions: for TFK+ kon: unlabeled enzyme, from measurements of enzyme activity
Description: Trifluoroacetophenone Inhibition—Picomolar amounts of enzyme in 0.01% bovine serum albumin in 0.1 M sodium phosphate buffer, pH 7.0, were reacted with TFK^+ in the absence of substrate. Inhibition was monitored by measuring residual enzyme activity by removal of aliquots during the course of the reaction. Bimolecular rate constants of inhibition were determined by nonlinear fit of the data (28). ΔF=ΔFmax(Et+It+Kd−/(Et+It+Kd)^2−4 EtIt∫^0.5)(2Et)^−1 (Eq. 1)
as §1

[2] = biological target: T2, acrylodan-labeled mouse AChE mutants (Mus musculus, UniProt P21836, E115C); conditions: edrophonium, tacrine or huperzine bound
T2 construct: made in house; host or cells: HEK293

[3] = tested on: wild type and mutant mouse AChEs; assay: Acetylthiocholine hydrolysis kinetics (Ellman method); type: biochemical; conditions: means ± S.D.
Description: Assay of Catalytic Activity—The spectrophotometric method of Ellman was used (25), and kinetic constants for acetylthiocholine hydrolysis were determined by fitting the observed rates as described (26). Titration of active sites with known concentrations of the irreversible phosphorylating agent, MEPQ, was accomplished by the method of Levy and Ashani (27).

E81C and E84C AChEs [4] = assay: Edrophonium binding, stopped-flow tryptophan fluorescence quenching (koff/kon); design: species or system mouse; conditions: unlabeled mutant
Description: (§2) Association and dissociation rate constants of edrophonium and […] with E81C and E84C AChEs were determined from changes in the tryptophan fluorescence using a stopped-flow spectrophotometer as described previously (29). Time-dependent decreases in tryptophan fluorescence were observed upon excitation at 276 nm by means of a 305 nm emission cut-off filter.

E81C and E84C AChEs [5] = assay: BW284c51 binding, stopped-flow tryptophan fluorescence quenching (koff/kon); design: species or system mouse; conditions: unlabeled mutant
Description: as §2

[6] = tested on: wild type and mutant mouse AChEs; conditions: data from Boyd et al. 2000, cited from earlier work; for Km / kcat: acetylthiocholine hydrolysis; for b: relative catalytic turnover of the ternary complex; for KSS: substrate inhibition or activation constant

Molecule | reduction of kon of TFK+ by acrylodan conjugation compared with unconjugated E84C [1] | TFK+ kon (mouse AChE) | TFK+ kon ratio to wild type (head is formula MATH:1) (mouse AChE; unlabeled mutant) | bathochromic shift upon inhibitor binding [2] | Km ([3]; acetylthiocholine hydrolysis) | kcat ([3]; acetylthiocholine hydrolysis) | b ([3]; relative catalytic turnover of the ternary complex) | KSS ([3]; substrate inhibition or activation constant) | Edrophonium Kd ratio to wild type (head is formula MATH:2) (E81C and E84C AChEs [4]) | BW284c51 Kd ratio to wild type (head is formula MATH:3) (E81C and E84C AChEs [5]) | Km [6] | kcat [6] | b [6] | KSS [6]
E84C (protein, UniProt P21836 32-614, looked up, variant E84C) Acetylcholinesterase: EGREDPQLLVRVRGGQLRGIRLKAPGGPVSAFLGIPFAEPPVGSRRFMPPEPKRPWSGVLDATTFQNVCYQYVDTLYPGFEGTCMWNPNRELSEDCLYLNVWTPYPRPASPTPVLIWIYGGGFYSGAASLDVYDGRFLAQVEGAVLVSMNYRVGTFGFLALPGSREAPGNVGLLDQRLALQWVQENIAAFGGDPMSVTLFGESAGAASVGMHILSLPSRSLFHRAVLQSGTPNGPWATVSAGEARRRATLLARLVGCPPGGAGGNDTELIACLRTRPAQDLVDHEWHVLPQESIFRFSFVPVVDGDFLSDTPEALINTGDFQDLQVLVGVVKDEGSYFLVYGVPGFSKDNESLISRAQFLAGVRIGVPQASDLAAEAVVLHYTDWLHPEDPTHLRDAMSAVVGDHNVVCPVAQLAGRLAAQGARVYAYIFEHRASTLTWPLWMGVPHGYEIEFIFGLPLDPSLNYTTEERIFAQRLMKYWTNFARTGDPNDPRDSKSPQWPPYTTAAQQYVSLNLKPLEVRRGLRAQTCAFWNRFLPKLLSATDTLDEAERQWKAEFHRWSSYMVHWKNQFDHYSKQERCSDL | 7 fold | 93 10^9M^−1min^−1 | 1.6 | 33 nm | 190 ± 9 µM | 1.9 ± 0.4 10^5/min | 0.2 ± 0.05 | 26 ± 2 mM | 2 and 2.2 | 18 |  |  |  | 
H287C (protein, UniProt P21836 32-614, looked up, variant H287C) Acetylcholinesterase: EGREDPQLLVRVRGGQLRGIRLKAPGGPVSAFLGIPFAEPPVGSRRFMPPEPKRPWSGVLDATTFQNVCYQYVDTLYPGFEGTEMWNPNRELSEDCLYLNVWTPYPRPASPTPVLIWIYGGGFYSGAASLDVYDGRFLAQVEGAVLVSMNYRVGTFGFLALPGSREAPGNVGLLDQRLALQWVQENIAAFGGDPMSVTLFGESAGAASVGMHILSLPSRSLFHRAVLQSGTPNGPWATVSAGEARRRATLLARLVGCPPGGAGGNDTELIACLRTRPAQDLVDHEWCVLPQESIFRFSFVPVVDGDFLSDTPEALINTGDFQDLQVLVGVVKDEGSYFLVYGVPGFSKDNESLISRAQFLAGVRIGVPQASDLAAEAVVLHYTDWLHPEDPTHLRDAMSAVVGDHNVVCPVAQLAGRLAAQGARVYAYIFEHRASTLTWPLWMGVPHGYEIEFIFGLPLDPSLNYTTEERIFAQRLMKYWTNFARTGDPNDPRDSKSPQWPPYTTAAQQYVSLNLKPLEVRRGLRAQTCAFWNRFLPKLLSATDTLDEAERQWKAEFHRWSSYMVHWKNQFDHYSKQERCSDL |  |  |  |  |  |  |  |  |  |  | 58 ± 7 µM | 1.8 ± 0.2 10^5/min | 0.2 ± 0.06 | 12 ± 6 mM
Wild Type (protein, UniProt P21836 32-614, looked up) Acetylcholinesterase: EGREDPQLLVRVRGGQLRGIRLKAPGGPVSAFLGIPFAEPPVGSRRFMPPEPKRPWSGVLDATTFQNVCYQYVDTLYPGFEGTEMWNPNRELSEDCLYLNVWTPYPRPASPTPVLIWIYGGGFYSGAASLDVYDGRFLAQVEGAVLVSMNYRVGTFGFLALPGSREAPGNVGLLDQRLALQWVQENIAAFGGDPMSVTLFGESAGAASVGMHILSLPSRSLFHRAVLQSGTPNGPWATVSAGEARRRATLLARLVGCPPGGAGGNDTELIACLRTRPAQDLVDHEWHVLPQESIFRFSFVPVVDGDFLSDTPEALINTGDFQDLQVLVGVVKDEGSYFLVYGVPGFSKDNESLISRAQFLAGVRIGVPQASDLAAEAVVLHYTDWLHPEDPTHLRDAMSAVVGDHNVVCPVAQLAGRLAAQGARVYAYIFEHRASTLTWPLWMGVPHGYEIEFIFGLPLDPSLNYTTEERIFAQRLMKYWTNFARTGDPNDPRDSKSPQWPPYTTAAQQYVSLNLKPLEVRRGLRAQTCAFWNRFLPKLLSATDTLDEAERQWKAEFHRWSSYMVHWKNQFDHYSKQERCSDL |  | 150 10^9M^−1min^−1 |  |  |  |  |  |  |  |  | 54 ± 16 µM | 1.6 ± 0.4 10^5/min | 0.2 ± 0.07 | 14 ± 5 mM
A262C (protein, UniProt P21836 32-614, looked up, variant A262C) Acetylcholinesterase: EGREDPQLLVRVRGGQLRGIRLKAPGGPVSAFLGIPFAEPPVGSRRFMPPEPKRPWSGVLDATTFQNVCYQYVDTLYPGFEGTEMWNPNRELSEDCLYLNVWTPYPRPASPTPVLIWIYGGGFYSGAASLDVYDGRFLAQVEGAVLVSMNYRVGTFGFLALPGSREAPGNVGLLDQRLALQWVQENIAAFGGDPMSVTLFGESAGAASVGMHILSLPSRSLFHRAVLQSGTPNGPWATVSAGEARRRATLLARLVGCPPGGCGGNDTELIACLRTRPAQDLVDHEWHVLPQESIFRFSFVPVVDGDFLSDTPEALINTGDFQDLQVLVGVVKDEGSYFLVYGVPGFSKDNESLISRAQFLAGVRIGVPQASDLAAEAVVLHYTDWLHPEDPTHLRDAMSAVVGDHNVVCPVAQLAGRLAAQGARVYAYIFEHRASTLTWPLWMGVPHGYEIEFIFGLPLDPSLNYTTEERIFAQRLMKYWTNFARTGDPNDPRDSKSPQWPPYTTAAQQYVSLNLKPLEVRRGLRAQTCAFWNRFLPKLLSATDTLDEAERQWKAEFHRWSSYMVHWKNQFDHYSKQERCSDL |  |  |  |  |  |  |  |  |  |  | 59 ± 4 µM | 1.6 ± 0.1 10^5/min | 0.2 ± 0.04 | 11 ± 3 mM
